Reference: IntAct's records for PubMed 9430655

B1: Merlin (Homo sapiens), P35240-1 (parent)
chain: MAGAIASRMSFSSLKRKQPKTFTVRIVTMDAEMEFNCEMKWKGKDLFDLVCRTLGLRETWFFGLQYTIKDTVAWLKMDKKVLDHDVSKEEPVTFHFLAKFYPENAEEELVQEITQHLFFLQVKKQILDEKIYCPPEASVLLASYAVQAKYGDYDPSVHKRGFLAQEELLPKRVINLYQMTPEMWEERITAWYAEHRGRARDEAEMEYLKIAQDLEMYGVNYFAIRNKKGTELLLGVDALGLHIYDPENRLTPKISFPWNEIRNISYSDKEFTIKPLDKKIDVFKFNSSKLRVNKLILQLCIGNHDLFMRRRKADSLEVQQMKAQAREEKARKQMERQRLAREKQMREEAERTRDELERRLLQMKEEATMANEALMRSEETADLLAEKAQITEEEAKLLAQKAAEAEQEMQRIKATAIRTEEEKRLMEQKVLEAEVLALKMAEESERRAKEADQLKQDLQEAREAERRAKQKLLEIATKPTYPPMNPIPAPLPPDIPSFNLIGDSLSFDFKDTDMKRLSMEIEKEKVEYMEKSKHLQEQLNELKTEIEALKLKERETALDILHNENSDRGGSSKHNTIKKLTLQSAKSRVAFFEEL
partner: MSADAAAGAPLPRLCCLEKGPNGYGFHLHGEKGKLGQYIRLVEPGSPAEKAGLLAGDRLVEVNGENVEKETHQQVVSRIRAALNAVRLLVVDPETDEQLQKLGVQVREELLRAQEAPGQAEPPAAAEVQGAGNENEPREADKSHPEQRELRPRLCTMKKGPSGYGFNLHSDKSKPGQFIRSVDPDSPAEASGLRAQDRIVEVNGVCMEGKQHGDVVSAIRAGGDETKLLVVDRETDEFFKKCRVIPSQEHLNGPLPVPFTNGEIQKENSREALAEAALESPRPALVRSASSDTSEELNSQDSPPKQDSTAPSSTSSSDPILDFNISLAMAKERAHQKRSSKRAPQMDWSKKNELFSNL

Variants of: B1
Conditions: with nhrf1_human NHERF1, O14745

effect of a mutation on the interaction | Variant
decreasing interaction | MAGAIASRMSFSSLKRKQPKTFTVRIVTMDAEMEFNCEMKWKGKDLFDLVCRTLGLRETWFFGLQYTIKDTVAWLKMDKKVLDHDVSKEEPVTFHFLAKFYPENAEEELVQEITQHLFFLQVKKQILDEKIYCPPEASVLLASYAVQAKYGDYDPSVHKRGFLAQEELLPKRVINLYQMTPEMWEERITAWYAEHRGRARDEAEMEYLKIAQDLEMYGVYYFAIRNKKGTELLLGVDALGLHIYDPENRLTPKISFPWNEIRNISYSDKEFTIKPLDKKIDVFKFNSSKLRVNKLILQLCIGNHDLFMRRRKADSLEVQQMKAQAREEKARKQMERQRLAREKQMREEAERTRDELERRLLQMKEEATMANEALMRSEETADLLAEKAQITEEEAKLLAQKAAEAEQEMQRIKATAIRTEEEKRLMEQKVLEAEVLALKMAEESERRAKEADQLKQDLQEAREAERRAKQKLLEIATKPTYPPMNPIPAPLPPDIPSFNLIGDSLSFDFKDTDMKRLSMEIEKEKVEYMEKSKHLQEQLNELKTEIEALKLKERETALDILHNENSDRGGSSKHNTIKKLTLQSAKSRVAFFEEL [N220Y]
